Measurements from publication doi:10.1101/2025.10.08.681084.

Target: recombinant Nrf2-6×his (human) (UniProt Q16236)
Test: pull-down

UniProt Q16236, sequence (Q16236 whole entry): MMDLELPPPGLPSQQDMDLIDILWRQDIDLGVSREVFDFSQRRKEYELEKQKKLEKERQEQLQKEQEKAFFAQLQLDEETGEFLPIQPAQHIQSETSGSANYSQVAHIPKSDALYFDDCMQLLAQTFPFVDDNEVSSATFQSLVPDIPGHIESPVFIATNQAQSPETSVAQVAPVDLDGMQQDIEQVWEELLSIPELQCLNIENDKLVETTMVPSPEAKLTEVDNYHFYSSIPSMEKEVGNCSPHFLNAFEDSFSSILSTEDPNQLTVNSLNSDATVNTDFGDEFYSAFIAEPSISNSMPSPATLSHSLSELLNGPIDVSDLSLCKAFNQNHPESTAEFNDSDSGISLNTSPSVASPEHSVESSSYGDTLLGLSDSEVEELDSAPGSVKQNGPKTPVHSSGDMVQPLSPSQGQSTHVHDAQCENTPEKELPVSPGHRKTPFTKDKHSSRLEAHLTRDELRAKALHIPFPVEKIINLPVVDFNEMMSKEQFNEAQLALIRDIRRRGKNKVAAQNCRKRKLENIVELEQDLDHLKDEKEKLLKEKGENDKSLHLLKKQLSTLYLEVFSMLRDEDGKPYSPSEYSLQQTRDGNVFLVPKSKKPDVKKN

recombinant K13 (TrK13-WT) (domain or fragment)
percent reduction of binding of heme-bound TrK13-WT against heme-free TrK13-WT: 26%
